Results from patent US20230021388A1 (VELOSBIO, published 2023).
Numbering of substitutions follows the chain as printed.

B1: Ab1 Fab variant H1 A30P (Fab, V domains shown)
VH: QVQLQESGPGLVKPSQTLSLTCTVSGYPFTAYNIHWVRQAPGQGLEWMGSFDPYDGGSSYNQKFKDRLTISKDTSKNQVVLTMTNMDPVDTATYYCARGWYYFDYWGHGTLVTVSS
VL: DIVMTQTPLSLPVTPGEPASISCRASKSISKYLAWYQQKPGQAPRLLIYSGSTLQSGIPPRFSGSGYGTDFTLTINNIESEDAAYYFCQQHDESPYTFGEGTKVEIK
notes: Fab
B2: Ab1 Fab variant H1 A30T (Fab, V domains shown)
VH: B1 VH with P28T
VL: B1 VL
notes: Fab
B3: Ab1 Fab variant H1 A33M (Fab, V domains shown)
VH: B1 VH with P28A, A31M
VL: B1 VL
notes: Fab
B4: Ab1 Fab variant H1 A33S (Fab, V domains shown)
VH: B1 VH with P28A, A31S
VL: B1 VL
notes: Fab
B5: Ab1 Fab variant H1 F31I (Fab, V domains shown)
VH: B1 VH with P28A, F29I
VL: B1 VL
notes: Fab
B6: Ab1 Fab variant H1 F31V (Fab, V domains shown)
VH: B1 VH with P28A, F29V
VL: B1 VL
notes: Fab
B7: Ab1 Fab variant H1 G27N (Fab, V domains shown)
VH: B1 VH with G26N, P28A
VL: B1 VL
notes: Fab
B8: Ab1 Fab variant H1 N40P (Fab, V domains shown)
VH: B1 VH with P28A, N33P
VL: B1 VL
notes: Fab
B9: Ab1 Fab variant H1 Y29G (Fab, V domains shown)
VH: B1 VH with Y27G, P28A
VL: B1 VL
notes: Fab
B10: Ab1 Fab variant H1 Y39F (Fab, V domains shown)
VH: B1 VH with P28A, Y32F
VL: B1 VL
notes: Fab
B11: Ab1 Fab variant H1 Y39W (Fab, V domains shown)
VH: B1 VH with P28A, Y32W
VL: B1 VL
notes: Fab
B12: Ab1 Fab variant H2 D65E (Fab, V domains shown)
VH: B1 VH with P28A, D55E
VL: B1 VL
notes: Fab
B13: Ab1 Fab variant H2 D76V (Fab, V domains shown)
VH: B1 VH with P28A, D66V
VL: B1 VL
notes: Fab
B14: Ab1 Fab variant H2 F58I (Fab, V domains shown)
VH: B1 VH with P28A, F51I
VL: B1 VL
notes: Fab
B15: Ab1 Fab variant H2 F58V (Fab, V domains shown)
VH: B1 VH with P28A, F51V
VL: B1 VL
notes: Fab
B16: Ab1 Fab variant H2 G66D (Fab, V domains shown)
VH: B1 VH with P28A, G56D
VL: B1 VL
notes: Fab
B17: Ab1 Fab variant H2 G66E (Fab, V domains shown)
VH: B1 VH with P28A, G56E
VL: B1 VL
notes: Fab
B18: Ab1 Fab variant H2 G66H (Fab, V domains shown)
VH: B1 VH with P28A, G56H
VL: B1 VL
notes: Fab
B19: Ab1 Fab variant H2 G66N (Fab, V domains shown)
VH: B1 VH with P28A, G56N
VL: B1 VL
notes: Fab
B20: Ab1 Fab variant H2 G67K (Fab, V domains shown)
VH: B1 VH with P28A, G57K
VL: B1 VL
notes: Fab
B21: Ab1 Fab variant H2 G67P (Fab, V domains shown)
VH: B1 VH with P28A, G57P
VL: B1 VL
notes: Fab
B22: Ab1 Fab variant H2 G67Q (Fab, V domains shown)
VH: B1 VH with P28A, G57Q
VL: B1 VL
notes: Fab
B23: Ab1 Fab variant H2 G67R (Fab, V domains shown)
VH: B1 VH with P28A, G57R
VL: B1 VL
notes: Fab
B24: Ab1 Fab variant H2 G67Y (Fab, V domains shown)
VH: B1 VH with P28A, G57Y
VL: B1 VL
notes: Fab
B25: Ab1 Fab variant H2 N71A (Fab, V domains shown)
VH: B1 VH with P28A, N61A
VL: B1 VL
notes: Fab
B26: Ab1 Fab variant H2 N71G (Fab, V domains shown)
VH: B1 VH with P28A, N61G
VL: B1 VL
notes: Fab
B27: Ab1 Fab variant H2 N71H (Fab, V domains shown)
VH: B1 VH with P28A, N61H
VL: B1 VL
notes: Fab
B28: Ab1 Fab variant H2 N71S (Fab, V domains shown)
VH: B1 VH with P28A, N61S
VL: B1 VL
notes: Fab
B29: Ab1 Fab variant H2 S68A (Fab, V domains shown)
VH: B1 VH with P28A, S58A
VL: B1 VL
notes: Fab
B30: Ab1 Fab variant H2 S68T (Fab, V domains shown)
VH: B1 VH with P28A, S58T
VL: B1 VL
notes: Fab
B31: Ab1 Fab variant H2 S69E (Fab, V domains shown)
VH: B1 VH with P28A, S59E
VL: B1 VL
notes: Fab
B32: Ab1 Fab variant H2 S69K (Fab, V domains shown)
VH: B1 VH with P28A, S59K
VL: B1 VL
notes: Fab
B33: Ab1 Fab variant H2 S69V (Fab, V domains shown)
VH: B1 VH with P28A, S59V
VL: B1 VL
notes: Fab
B34: Ab1 Fab variant H2 Y70I (Fab, V domains shown)
VH: B1 VH with P28A, Y60I
VL: B1 VL
notes: Fab
B35: Ab1 Fab variant H2 Y70V (Fab, V domains shown)
VH: B1 VH with P28A, Y60V
VL: B1 VL
notes: Fab
B36: Ab1 Fab variant L1 A25P (Fab, V domains shown)
VH: B1 VH with P28A
VL: B1 VL with A25P
notes: Fab
B37: Ab1 Fab variant L1 I31V (Fab, V domains shown)
VH: B1 VH with P28A
VL: B1 VL with I29V
notes: Fab
B38: Ab1 Fab variant L1 K29E (Fab, V domains shown)
VH: B1 VH with P28A
VL: B1 VL with K27E
notes: Fab
B39: Ab1 Fab variant L1 K29S (Fab, V domains shown)
VH: B1 VH with P28A
VL: B1 VL with K27S
notes: Fab
B40: Ab1 Fab variant L1 L41M (Fab, V domains shown)
VH: B1 VH with P28A
VL: B1 VL with L33M
notes: Fab
B41: Ab1 Fab variant L1 L41V (Fab, V domains shown)
VH: B1 VH with P28A
VL: B1 VL with L33V
notes: Fab
B42: Ab1 Fab variant L1 S30A (Fab, V domains shown)
VH: B1 VH with P28A
VL: B1 VL with S28A
notes: Fab
B43: Ab1 Fab variant L1 S30F (Fab, V domains shown)
VH: B1 VH with P28A
VL: B1 VL with S28F
notes: Fab
B44: Ab1 Fab variant L1 S30H (Fab, V domains shown)
VH: B1 VH with P28A
VL: B1 VL with S28H
notes: Fab

The binders below were run against T1, recombinant human ROR1 extracellular domain (human, UniProt Q01973 30-406) (assay: ELISA, soluble Fab on coated huROR1-ECD).
T1 construct: biotinylated for the filter lifts; also called huROR1-ECD; human ROR1-ECD
Experimental: The previously described filter lift assay provides a visual, qualitative assessment of antigen binding (Example 1). In order to assess the ROR1 binding activity of Ab1 Fab in a more quantitative fashion, an ELISA assay was developed. A 96-well Costar-3366 plate was coated with 50 μL/well of 1 μg/mL human ROR1-ECD (ACROBiosystems, cat. #RO1-H522y) in PBS overnight at 4° C. The plate was rinsed once with PBS-T and blocked with 100 μL/well of 5% M-P for 1 h at 25° C. Fab samples were serially diluted 3-fold using 5% M-P and 50 μL/well was incubated for 1 h at 25° C. The plate was washed three times with PBS-T and 50 μL/well anti-human kappa, and HRP conjugate (Southern Biotech, cat. #2060-05) diluted 10,000-fold in 5% M-P was added for 1 h at 25° C. In certain assays (extended wash format), the plate was placed in large volumes (up to 1 L) of PBS-T and incubated, with mixing, for 2-5 h prior to the addition of anti-human kappa, HRP conjugate. The plate was washed three times with PBS-T, and developed with 50 μL/well 1-Step Ultra TMB-ELISA (Thermo Scientific, cat. #34028). The reaction was terminated by the addition of 2 N H2504 and the A450 was determined using a Spectramax plate reader.

T1 sequence (Q01973 30-406 limits assumed): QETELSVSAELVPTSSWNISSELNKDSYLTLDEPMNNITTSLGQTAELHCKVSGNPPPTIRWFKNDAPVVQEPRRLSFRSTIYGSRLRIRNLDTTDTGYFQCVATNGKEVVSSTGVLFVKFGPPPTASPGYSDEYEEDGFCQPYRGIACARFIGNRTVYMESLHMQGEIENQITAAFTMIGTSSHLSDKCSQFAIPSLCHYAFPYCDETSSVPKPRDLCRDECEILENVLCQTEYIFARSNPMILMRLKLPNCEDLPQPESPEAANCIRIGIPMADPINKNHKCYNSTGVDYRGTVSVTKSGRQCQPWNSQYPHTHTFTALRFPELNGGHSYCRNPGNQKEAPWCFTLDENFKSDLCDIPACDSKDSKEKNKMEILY

Q: With B1 as the binder, how does the Kd read?
A: 12 nM

Q: Which Kd does the source give for B2 here?
A: 16 nM

Q: Which Kd does the source give for B3 here?
A: 15 nM

Q: B4 was tested. Which Kd did it give?
A: 11 nM

Q: With B5 as the binder, how does the Kd read?
A: 5.8 nM

Q: How did the Kd turn out when B6 was run?
A: 8.3 nM

Q: How did the Kd turn out when B7 was run?
A: 8.4 nM

Q: How did the Kd turn out when B8 was run?
A: 40 nM

Q: How did the Kd turn out when B9 was run?
A: 7.1 nM

Q: With B10 as the binder, how does the Kd read?
A: 5.7 nM

Q: Which Kd does the source give for B11 here?
A: 3.3 nM

Q: For B12, which Kd is on record?
A: 4.9 nM

Q: For B13, which Kd is on record?
A: 1.8 nM

Q: B14 was tested. Which Kd did it give?
A: 1.8 nM

Q: B15 was tested. Which Kd did it give?
A: 0.9 nM

Q: For B16, which Kd is on record?
A: 2.2 nM

Q: B17 was tested. Which Kd did it give?
A: 0.9 nM

Q: How did the Kd turn out when B18 was run?
A: 1.4 nM

Q: For B19, which Kd is on record?
A: 2.2 nM

Q: How did the Kd turn out when B20 was run?
A: 2.3 nM

Q: For B21, which Kd is on record?
A: 0.6 nM

Q: B22 was tested. Which Kd did it give?
A: < 1 nM

Q: How did the Kd turn out when B23 was run?
A: 1.7 nM

Q: For B24, which Kd is on record?
A: 6.3 nM

Q: Which Kd does the source give for B25 here?
A: 1.3 nM

Q: For B26, which Kd is on record?
A: 1.5 nM

Q: For B27, which Kd is on record?
A: 1.1 nM

Q: B28 was tested. Which Kd did it give?
A: 1.2 nM

Q: How did the Kd turn out when B29 was run?
A: 1.2 nM

Q: For B30, which Kd is on record?
A: 6.4 nM

Q: Which Kd does the source give for B31 here?
A: 1.2 nM

Q: How did the Kd turn out when B32 was run?
A: 46 nM

Q: For B33, which Kd is on record?
A: 1 nM

Q: Which Kd does the source give for B34 here?
A: 1.7 nM

Q: With B35 as the binder, how does the Kd read?
A: 1.5 nM

Q: With B36 as the binder, how does the Kd read?
A: 0.7 nM

Q: For B37, which Kd is on record?
A: 2.8 nM

Q: With B38 as the binder, how does the Kd read?
A: 1.2 nM

Q: For B39, which Kd is on record?
A: 0.9 nM

Q: With B40 as the binder, how does the Kd read?
A: 1.3 nM

Q: Which Kd does the source give for B41 here?
A: 1.1 nM

Q: Which Kd does the source give for B42 here?
A: 1.5 nM

Q: Which Kd does the source give for B43 here?
A: 18 nM

Q: For B44, which Kd is on record?
A: 1.4 nM
